# Legend:
# human PD-1 on cells = target: T1, human PD-1 on cells (human, UniProt Q15116 25-288); assay: flow cytometry on CHO-hPD-1 cells, anti-human IgG-Fc PE
# T1 construct: whole, on cells; also called CHO-hPD-1; CHO-S cells overexpressing human PD-1
# human CD40 on cells = target: T2, human CD40 on cells (human, UniProt P25942 21-277); assay: flow cytometry on CHO-hCD40 cells, anti-human IgG-Fc PE
# T2 construct: whole, on cells; One molecule is used for human CD40 on the three cell types; also called CHO-hCD40; CHO-S cells overexpressing human CD40
# human PD-1 protein = human PD-1 protein (human, UniProt Q15116 25-167, limits assumed); assay: BLI (ForteBio), antibody on AHQ sensor, 100 nM antigen, 1:1 model
# human CD40 protein = human CD40 protein (human, UniProt P25942 21-193, limits assumed); assay: as above
# Chain of human CD40 protein (P25942 21-193 limits assumed): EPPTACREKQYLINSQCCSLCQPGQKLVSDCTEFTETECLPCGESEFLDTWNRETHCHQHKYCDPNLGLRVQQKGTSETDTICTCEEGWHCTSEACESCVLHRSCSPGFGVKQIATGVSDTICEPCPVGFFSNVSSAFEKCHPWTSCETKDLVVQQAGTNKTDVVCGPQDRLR
# T1 sequence (Q15116 25-288): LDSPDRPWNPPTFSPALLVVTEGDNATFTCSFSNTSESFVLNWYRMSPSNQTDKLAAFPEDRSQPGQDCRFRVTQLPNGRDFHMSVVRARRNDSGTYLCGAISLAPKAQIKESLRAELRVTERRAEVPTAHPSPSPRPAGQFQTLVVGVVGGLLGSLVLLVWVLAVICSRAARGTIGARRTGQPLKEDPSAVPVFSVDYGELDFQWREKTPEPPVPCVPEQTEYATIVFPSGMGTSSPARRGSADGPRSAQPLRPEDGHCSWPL
# Chain of human PD-1 protein (Q15116 25-167 limits assumed): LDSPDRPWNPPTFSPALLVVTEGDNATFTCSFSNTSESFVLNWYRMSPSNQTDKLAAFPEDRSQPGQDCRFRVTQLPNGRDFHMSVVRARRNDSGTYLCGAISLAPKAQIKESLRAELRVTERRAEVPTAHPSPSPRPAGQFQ
# T2 sequence (P25942 21-277): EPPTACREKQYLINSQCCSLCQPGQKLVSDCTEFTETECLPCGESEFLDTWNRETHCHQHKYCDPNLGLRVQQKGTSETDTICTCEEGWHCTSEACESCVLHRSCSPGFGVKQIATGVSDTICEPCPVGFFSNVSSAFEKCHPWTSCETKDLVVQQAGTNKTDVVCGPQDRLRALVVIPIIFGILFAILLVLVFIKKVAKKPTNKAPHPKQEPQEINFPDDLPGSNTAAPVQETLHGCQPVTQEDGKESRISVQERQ
binding result (human PD-1 on cells),binding result (human CD40 on cells),binding result (human PD-1 protein),binding result (human CD40 protein),Binder
binds,binds,binds,binds,"PD1(pembro)xCD40(non-blocker, ADI-55164) (bispecific antibody, human IgG1, kappa, also called BsAb-3; PD1(pembro)xCD40(ADI-55164)) heavy: not shown light: EIVLTQSPATLSLSPGERATLSCRASKGVSTSGYSYLHWYQQKPGQAPRLLIYLASYLESGVPARFSGSGSGTDFTLTISSLEPEDFAVYYCQHSRDLPLTFGGGTKVEIKRTVAAPSVFIFPPSDEQLKSGTASVVCLLNNFYPREAKVQWKVDNALQSGNSQESVTEQDSKDSTYSLSSTLTLSKADYEKHKVYACEVTHQGLSSPVTKSFNRGEC"
binds,binds,binds,binds,"PD1xCD40(blocker, ADI-55147) (bispecific antibody, human IgG1, kappa, also called BsAb-2) heavy: not shown light: EIVLTQSPATLSLSPGERATLSCRASKSVSTSGLNYVHWYQRKPGQAPRLLIYLGSYLDSGVPARFSGSGSGTDFTLTISSLEPEDFAVYYCQQSWELPLTFGGGTKVEIKRTVAAPSVFIFPPSDEQLKSGTASVVCLLNNFYPREAKVQWKVDNALQSGNSQESVTEQDSKDSTYSLSSTLTLSKADYEKHKVYACEVTHQGLSSPVTKSFNRGEC"

# — EP4803547A1 (Biontech (Zhuhai) Pharmaceuticals R&D Co., Ltd, dated 2026)
